Reference: paper PMC11479587

Target: Ssa1 (yeast (S. cerevisiae)) (UniProt P10591)
Sequence (P10591 whole entry): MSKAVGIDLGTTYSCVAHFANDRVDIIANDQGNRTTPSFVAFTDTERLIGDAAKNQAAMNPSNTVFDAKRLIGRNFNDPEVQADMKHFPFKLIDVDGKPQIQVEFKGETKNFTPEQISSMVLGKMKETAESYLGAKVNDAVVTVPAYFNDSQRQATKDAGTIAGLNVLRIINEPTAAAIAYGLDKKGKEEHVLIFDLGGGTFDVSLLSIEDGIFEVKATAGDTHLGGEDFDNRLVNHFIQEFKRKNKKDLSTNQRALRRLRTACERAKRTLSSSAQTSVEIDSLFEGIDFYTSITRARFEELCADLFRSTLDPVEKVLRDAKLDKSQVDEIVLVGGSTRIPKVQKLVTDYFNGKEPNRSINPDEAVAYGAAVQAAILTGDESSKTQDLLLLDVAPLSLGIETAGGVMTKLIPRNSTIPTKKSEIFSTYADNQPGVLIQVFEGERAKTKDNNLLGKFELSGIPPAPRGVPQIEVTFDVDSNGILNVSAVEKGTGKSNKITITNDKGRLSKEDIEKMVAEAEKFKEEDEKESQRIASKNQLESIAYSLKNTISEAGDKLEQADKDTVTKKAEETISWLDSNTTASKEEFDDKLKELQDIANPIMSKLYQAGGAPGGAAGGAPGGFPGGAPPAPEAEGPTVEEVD

Which renaturation of heat-aggregated GFP by Ssa1-Sis1 (1 µM each); concentration of Sse1-2 against Sse1 WT needed for the same activity; no inhibition up to 2 µM Sse1-2 does the source give for “Sse1-2 variant (N572Y E575A) (from UniProt P32589 1-693) (natural protein)” here?
The renaturation of heat-aggregated GFP by Ssa1-Sis1 (1 µM each); concentration of Sse1-2 against Sse1 WT needed for the same activity; no inhibition up to 2 µM Sse1-2 was 20 times.
